Measurements as given in article PMC6261651, “A functional proteomics platform to reveal the sequence determinants of lysine methyltransferase substrate selectivity” (Science Advances, 2018).
Numbering of substitutions follows the chain as printed. Names may count otherwise. “Also recorded” adds a separate entry of the source. Values belong to the molecule of their own block, whether it stands above or below them.

How the values were obtained:
[1] = molecular target: T1, SMYD2 (Homo sapiens, UniProt Q9NRG4); test: In vitro SMYD2 methyltransferase assay with protein substrates (SDS-PAGE, 3H fluorography); format: biochemical; settings: 1 μg of KMT, 1 μg of substrate, 1 μCi 3H-SAM, 1 hour, room temperature; 3H fluorography (Fig. 5A, 5B, fig. S5A)
T1 construct: SMYD2 (full length) was expressed as a N-terminal glutathione S-transferase (GST) fusion; GST (N); made in house; host or cells: Escherichia coli BL21(DE3)
T1 sequence (Q9NRG4 whole entry, the tested form may be a part): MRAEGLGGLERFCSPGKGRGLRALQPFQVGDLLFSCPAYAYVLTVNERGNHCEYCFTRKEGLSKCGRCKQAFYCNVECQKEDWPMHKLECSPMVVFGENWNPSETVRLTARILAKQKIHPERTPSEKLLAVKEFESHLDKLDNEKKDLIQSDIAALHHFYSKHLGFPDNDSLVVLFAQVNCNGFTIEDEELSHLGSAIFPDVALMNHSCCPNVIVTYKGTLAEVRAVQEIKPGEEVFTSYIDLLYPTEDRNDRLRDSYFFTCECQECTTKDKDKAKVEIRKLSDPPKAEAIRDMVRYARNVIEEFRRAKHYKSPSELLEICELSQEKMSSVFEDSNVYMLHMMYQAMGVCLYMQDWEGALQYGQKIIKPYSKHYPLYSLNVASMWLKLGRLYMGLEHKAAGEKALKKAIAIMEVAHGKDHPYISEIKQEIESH
Protocol: Reactions (10 μl) containing 1 μg of KMT, 1 μg of the indicated substrates, and 1 μCi of ^3H-SAM (PerkinElmer) in KMT reaction buffer were incubated for 1 hour at room temperature. Reactions were quenched by the addition of SDS loading buffer and resolved by SDS–polyacrylamide gel electrophoresis. Following the detection of total protein by Coomassie staining, gels were treated with EN^3HANCE (PerkinElmer) and dried, and methylated proteins were detected by autoradiography.
Fig. S5. In vitro SMYD2 assays with protein substrates. (A) Coomassie stained SDS-PAGE of recombinant control (HIS-GST), known substrates (p53, MAPKAPK3), and predicted substrates (PRDM11, GDAP1, MAP3K12) in the absence and presence of SMYD2. Reactions were carried out with 1 μg of SMYD2, 1 μg of substrate, and 1 μCi of 3H-SAM. 3H fluorograph shown below after 24 hour exposure at -80 °C (B) Cartoon repre- sentation of ZPK (PDB:
5CEN) showing plus and minus three amino acids from the target lysine (PO) as stick models.
(1 picture or pasted object on this page, not shown here)

[2] = molecular target: T1, SMYD2; test: SPA kinetic analysis of SMYD2 methylation of peptide substrates; format: biochemical; settings: 200 nM SMYD2, 50 μM SAM, varied substrate concentration, mean of three independent measurements (Fig. 4D)
Protocol: Reactions (10 μl) containing 1 μg of KMT, 1 μg of a K-OPL set, and 1 μCi of ^3H-SAM (PerkinElmer) in KMT reaction buffer [50 mM tris (pH 8.8), 5 mM MgCl2, and 4 mM dithiothreitol] were incubated for 1 hour at room temperature. Reactions were stopped by adding trifluoracetic acid to a final concentration of 0.5%, neutralized by diluting with 135 μl of 50 mM NaHCO3, and transferred to streptavidin-coated FlashPlates (PerkinElmer). Plates were incubated for 15 min, sealed, and counted in a MicroBeta2 liquid scintillation counter (PerkinElmer) for 1 min per sample. Initial rate measure and kinetic analysis were performed using the same procedure with 200 nM SMYD2, 50 μM SAM (5:1 cold/hot ratio), and 80 μM substrate (initial rate measurements) or as indicated (kinetic analysis). IC50 measurements were performed using the same conditions with 5 μM PER2 peptide as a substrate.

B1: MAPKAPK3: full-length recombinant MAPKAPK3, known SMYD2 substrate (protein, UniProt Q16644 1-382, looked up)
chain: MDGETAEEQGGPVPPPVAPGGPGLGGAPGGRREPKKYAVTDDYQLSKQVLGLGVNGKVLECFHRRTGQKCALKLLYDSPKARQEVDHHWQASGGPHIVCILDVYENMHHGKRCLLIIMECMEGGELFSRIQERGDQAFTEREAAEIMRDIGTAIQFLHSHNIAHRDVKPENLLYTSKEKDAVLKLTDFGFAKETTQNALQTPCYTPYYVAPEVLGPEKYDKSCDMWSLGVIMYILLCGFPPFYSNTGQAISPGMKRRIRLGQYGFPNPEWSEVSEDAKQLIRLLLKTDPTERLTITQFMNHPWINQSMVVPQTPLHTARVLQEDKDHWDEVKEEMTSALATMRVDYDQVKIKDLKTSNNRLLNKRRKKQAGSSSASQGCNNQ
modifications: full-length
notes: full-length recombinant MAPKAPK3, known SMYD2 substrate
- methylation of recombinant protein substrate by SMYD2 [1]: weaker than most of the newly identified SMYD2 substrates

- methylation of recombinant protein substrate by SMYD2 [1]: improved methylation of this protein
B2: MAPKAPK3 (D353R and T356S): MAPKAPK3 with mutations predicted to enhance methylation (protein, UniProt Q16644 1-382, looked up, variant D353R T356S)
MAP kinase-activated protein …: B1 chain with D353R, T356S

B3: ZPK: recombinant protein, predicted SMYD2 substrate (protein, UniProt Q12852 1-859, looked up)
Mitogen-activated protein …: MACLHETRTPSPSFGGFVSTLSEASMRKLDPDTSDCTPEKDLTPTHVLQLHEQDAGGPGGAAGSPESRASRVRADEVRLQCQSGSGFLEGLFGCLRPVWTMIGKAYSTEHKQQQEDLWEVPFEEILDLQWVGSGAQGAVFLGRFHGEEVAVKKVRDLKETDIKHLRKLKHPNIITFKGVCTQAPCYCILMEFCAQGQLYEVLRAGRPVTPSLLVDWSMGIAGGMNYLHLHKIIHRDLKSPNMLITYDDVVKISDFGTSKELSDKSTKMSFAGTVAWMAPEVIRNEPVSEKVDIWSFGVVLWELLTGEIPYKDVDSSAIIWGVGSNSLHLPVPSSCPDGFKILLRQCWNSKPRNRPSFRQILLHLDIASADVLSTPQETYFKSQAEWREEVKLHFEKIKSEGTCLHRLEEELVMRRREELRHALDIREHYERKLERANNLYMELNALMLQLELKERELLRREQALERRCPGLLKPHPSRGLLHGNTMEKLIKKRNVPQKLSPHSKRPDILKTESLLPKLDAALSGVGLPGCPKGPPSPGRSRRGKTRHRKASAKGSCGDLPGLRTAVPPHEPGGPGSPGGLGGGPSAWEACPPALRGLHHDLLLRKMSSSSPDLLSAALGSRGRGATGGAGDPGSPPPARGDTPPSEGSAPGSTSPDSPGGAKGEPPPPVGPGEGVGLLGTGREGTSGRGGSRAGSQHLTPAALLYRAAVTRSQKRGISSEEEEGEVDSEVELTSSQRWPQSLNMRQSLSTFSSENPSDGEEGTASEPSPSGTPEVGSTNTDERPDERSDDMCSQGSEIPLDPPPSEVIPGPEPSSLPIPHQELLRERGPPNSEDSDCDSTELDNSNSVDALRPPASLPP
- methylation of recombinant protein substrate by SMYD2 [1]: methylated by SMYD2; also recorded: poor SMYD2 substrates

B4: CDC5L: recombinant CDC5L (amino acids 150 to 280), N-terminal GST fusion (protein, UniProt Q99459 150-280, looked up, fragment)
chain: EMLSEARARLANTQGKKAKRKAREKQLEEARRLAALQKRRELRAAGIEIQKKRKRKRGVDYNAEIPFEKKPALGFYDTSEENYQALDADFRKLRQQDLDGELRSEKEGRDRKKDKQHLKRKKESDLPSAIL
modifications: N-terminal GST fusion
notes: recombinant CDC5L (amino acids 150 to 280), N-terminal GST fusion
- methylation of recombinant protein substrate by SMYD2 [1]: methylated by SMYD2; also recorded: at least as efficiently as the known substrate, p53

B5: GDAP1: recombinant GDAP1 (full length), Abcam (protein, UniProt Q8TB36 1-358, looked up)
chain: MAERQEEQRGSPPLRAEGKADAEVKLILYHWTHSFSSQKVRLVIAEKALKCEEHDVSLPLSEHNEPWFMRLNSTGEVPVLIHGENIICEATQIIDYLEQTFLDERTPRLMPDKESMYYPRVQHYRELLDSLPMDAYTHGCILHPELTVDSMIPAYATTRIRSQIGNTESELKKLAEENPDLQEAYIAKQKRLKSKLLDHDNVKYLKKILDELEKVLDQVETELQRRNEETPEEGQQPWLCGESFTLADVSLAVTLHRLKFLGFARRNWGNGKRPNLETYYERVLKRKTFNKVLGHVNNILISAVLPTAFRVAKKRAPKVLGTTLVVGLLAGVGYFAFMLFRKRLGSMILAFRPRPNYF
modifications: full-length
notes: recombinant GDAP1 (full length), Abcam
- methylation of recombinant protein substrate by SMYD2 [1]: methylated by SMYD2; also recorded: poor SMYD2 substrates

- kinetic model of SMYD2 methylation [2]: consistent with substrate inhibition
B6: PER2: recombinant PER2 (amino acids 691 to 900), N-terminal MBP-His fusion (protein, UniProt O15055 691-900, looked up, fragment)
chain: VEDAASGPESLDCLAGPALACGLSQEKEPFKKLGLTKEVLAAHTQKEEQSFLQKFKEIRKLSIFQSHCHYYLQERSKGQPSERTAPGLRNTSGIDSPWKKTGKNRKLKSKRVKPRDSSESTGSGGPVSARPPLVGLNATAWSPSDTSQSSCPAVPFPAPVPAAYSLPVFPAPGTVAAPPAPPHASFTVPAVPVDLQHQFAVQPPPFPAPL
modifications: N-terminal MBP-His fusion
notes: recombinant PER2 (amino acids 691 to 900), N-terminal MBP-His fusion
- methylation of recombinant protein substrate by SMYD2 [1]: methylated by SMYD2; also recorded: at least as efficiently as the known substrate, p53

B7: ATP6V1G3: recombinant ATP6V1G3 (full length), N-terminal GST fusion (protein, UniProt Q96LB4 1-118, looked up)
chain: MTSQSQGIHQLLQAEKRAKDKLEEAKKRKGKRLKQAKEEAMVEIDQYRMQRDKEFRLKQSKIMGSQNNLSDEIEEQTLGKIQELNGHYNKYMESVMNQLLSMVCDMKPEIHVNYRATN
modifications: full-length N-terminal GST fusion
- methylation of recombinant protein substrate by SMYD2 [1]: methylated by SMYD2; also recorded: at least as efficiently as the known substrate, p53
